The values below come from patent US20070243569.

The test system of series [1] is T1, non-phosphorylated pKID-PKA.
T1 sequence: DKNADGWIDRASLA

In series [2] the test system is T2, non-phosphorylated pKID-PKC.
T2 sequence: DKNADGWIDAASLK

The subject of series [3] is T3, non-phosphorylated pKID-Erk.
T3 sequence: DKNADGWIDAASPA

In the case of Protein Kinase A (PKA), in series [1], the “extent of peptide phosphorylation by HPLC (conversion to phosphorylated peptide)” value is “pKID-PKA was enzymatically phosphorylated to >95% conversion in 12 hrs by PKA” and the “phosphorylation in HeLa nuclear extract with added PKA after 3 h, conversion by HPLC” value was “Phosphorylation proceeded at 75% conversion as measured by HPLC”. In addition, the “extent of peptide phosphorylation by HPLC” value in series [2] is “under identical conditions pKID-Erk (FIG. 9) and pKID-PKC (FIG. 10) showed no evidence of phosphorylation”. Also, the “extent of peptide phosphorylation by HPLC” value in series [3] was “under identical conditions pKID-Erk (FIG. 9) and pKID-PKC (FIG. 10) showed no evidence of phosphorylation”.
